The source of these data is patent US20140107188, “USE OF HGMA-TARGETED PHOSPHOROTHIOATE DNA APTAMERS TO SUPPRESS CARCINOGENIC ACTIVITY AND INCREASE SENSITIVITY TO CHEMOTHERAPY AGENTS IN HUMAN CANCER CELLS” (Miami University, published 2014).

Series [1] has as its target T1, HMGA1b (full length) (UniProt P17096-2 P17096-2:1-96). In words: competition; about half of ATf10 displaced at 1:1 ATf10:ATs10; similar affinity to unmodified DNA. The following applies: tags: expressed from pET-30b in E. coli BL21(DE3); TCA precipitation and Sephadex G-25. As for the experimental part:
(§1) The HMGA protein samples were prepared in 25 mM Tris-HCl (pH 6.5), 50 mM NaCl, and the concentrations determined based on UV […] absorbance (ε=38,200 mol-1 cm-1). […] Nature structural biology 4 (1997) 657-665, the disclosure of which is incorporated herein by reference in its entirety and incubated at 4° C. for 15 minutes prior to gel analysis. The protein-DNA complexes were resolved on a 7.5% polyacrylmide gel and run with TAE buffer at 20 mA for 2-3 hours at 4° C. The DNA was detected at 495 nm using the VersaDoc™ Imaging System Model 3000 from BIO-RAD Laboratories, Inc. of Hercules, Calif. (USA). The gels were further stained with coomassie blue and visualized by an AlphaImager (Alpha Innotech, San Leandro, Calif.).

The target of series [2] is T1, HMGA1b (full length). As to the kind of experiment: competition; equal amount did not interfere with HMGA1-ATf10 complex; 1:1 ATf10:HMGA1. The following applies: tags: expressed from pET-30b in E. coli BL21(DE3); TCA precipitation and Sephadex G-25. As for the experimental part:
as §1

Series [3] concerns the target T1, HMGA1b (full length). In words: EMSA; nearly completely shifted at DNA:HMGA1 1:1.5; 25 mM Tris-HCl pH 6.5, 50 mM NaCl, 4 C. The following applies: tags: expressed from pET-30b in E. coli BL21(DE3); TCA precipitation and Sephadex G-25; label: 5'-6-FAM. As for the experimental part:
as §1

T1 sequence (P17096 other isoform, or with tags, fused parts or gaps): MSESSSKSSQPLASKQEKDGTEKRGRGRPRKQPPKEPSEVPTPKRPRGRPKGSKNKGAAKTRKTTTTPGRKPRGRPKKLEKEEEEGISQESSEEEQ

B1: ATs10 (dsDNA)
DNA 1: GGGTTTTTTTTTTCGCGGCGGCCCCGCG
DNA 2: CGCGGGGCCGCCGCGAAAAAAAAAACCC
modifications: PS at the T10 tract linkages of the printed strand (GGGT*T*T*T*T*T*T*T*T*T*CGCG..); complementary strand unmodified
As for B1, the binding signal with HMGA1b (full length) [1] is about 1 fold affinity vs ATf10.

B2: Mix10 (dsDNA)
DNA 1: GGGCGTGACTGAGCGCGGCGGCCCCGCG
DNA 2: CGCGGGGCCGCCGCGCTCAGTCACGCCC
For the molecule B2, the binding result with HMGA1b (full length) [2] is given as “no binding”.

B3: ATf10 (dsDNA)
DNA 1: CGCGGGGCCGCCGCGAAAAAAAAAAACCC
DNA 2: GGGTTTTTTTTTTTCGCGGCGGCCCCGCG
As to B3, the binding result with HMGA1b (full length) [3] is on record as “binds”.

B4: CG10 (dsDNA)
DNA 1: GGGCCCCCCCCCCCGCGGCGGCCCCGCG
DNA 2: CGCGGGGCCGCCGCGGGGGGGGGGGCCC
For B4, the binding result with HMGA1b (full length) [2] is on record as “no binding”.
